Test results from patent US20260201008A1, “SECRETIN-DERIVED GLP1R SELECTIVE AGONISTS” (GUBRA A/S, priority 2023, published 2026).
Numbered stars: 1 amine (or outer) side, 2 acyl side, 3 side chain; on linkers, the order of the positions; unused ones are H or OH. Square brackets hold non-standard residues; d marks the D form. Side chains are listed from the residue outwards. Ends that are not written are not given here. * marks the point of attachment. C20 diacid = O=C(O)CCCCCCCCCCCCCCCCCCC(=O)*; γGlu = O=C(O)[C@H](CCC(=O)[*:2])N[*:1]; AEEA = NCCOCCOCC(=O)O; Aib = CC(C)(N)C(=O)O

How the values were obtained:
[1] = target: human secretin receptor (hSCTR) (human, UniProt P47872 23-440); assay: cell-based or functional assay
Sequence of human secretin receptor (hSCTR) (P47872 23-440): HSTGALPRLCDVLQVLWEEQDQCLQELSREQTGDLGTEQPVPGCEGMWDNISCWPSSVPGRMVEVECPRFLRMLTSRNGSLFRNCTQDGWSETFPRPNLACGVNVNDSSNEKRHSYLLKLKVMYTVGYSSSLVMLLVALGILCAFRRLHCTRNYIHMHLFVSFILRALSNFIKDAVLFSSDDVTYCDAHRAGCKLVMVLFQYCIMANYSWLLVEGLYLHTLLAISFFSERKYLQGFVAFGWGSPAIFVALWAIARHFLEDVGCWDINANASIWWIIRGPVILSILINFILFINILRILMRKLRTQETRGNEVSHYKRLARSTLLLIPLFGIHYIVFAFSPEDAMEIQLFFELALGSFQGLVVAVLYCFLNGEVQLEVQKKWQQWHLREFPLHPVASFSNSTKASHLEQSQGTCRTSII

[2] = target: human GLP-1 receptor (hGLP1R) (human, UniProt P43220 24-463); assay: cell-based or functional assay

pEC50 hSCTR [1]	pEC50 hGLPR1 [2]	Binder
7.1 -log M	10.9 -log M	H[Aib]EGTFTSDVSELK([AEEA-AEEA-γGlu-C20 diacid])E[Aib]AAQQRFLEHLV-NH2 [SEQ ID NO: 5]
5.7 -log M	10 -log M	H[Aib]EGTFTSDVSVLK([AEEA-AEEA-γGlu-C20 diacid])ETAAAQRFLEHLV-NH2 [SEQ ID NO: 62]
5.7 -log M	10.5 -log M	H[Aib]EGTFTSDVSELK([AEEA-AEEA-γGlu-C20 diacid])EEAAEQRFLEHLV-NH2 [SEQ ID NO: 51]
7.3 -log M	10.8 -log M	H[Aib]EGTFTSDVSRLK([AEEA-AEEA-γGlu-C20 diacid])E[Aib]AATQRFLEHLV-NH2 [SEQ ID NO: 50]
5.1 -log M	10.4 -log M	H[Aib]EGTFTSDVSFLK([AEEA-AEEA-γGlu-C20 diacid])EEAAEQRFLEHLV-NH2 [SEQ ID NO: 56]
6.1 -log M	10.9 -log M	H[Aib]EGTFTSDVSYLK([AEEA-AEEA-γGlu-C20 diacid])EEAAAQRFLEHLV-NH2 [SEQ ID NO: 61]
6 -log M	10.6 -log M	H[Aib]EGTFTSDVSYLK([AEEA-AEEA-γGlu-C20 diacid])ETAAQQRFLEHLV-NH2 [SEQ ID NO: 58]
6.9 -log M	10.5 -log M	H[Aib]EGTFTSDVSRLK([AEEA-AEEA-γGlu-C20 diacid])E[Aib]AASQRFLEHLV-NH2 [SEQ ID NO: 59]

The next lines start with the binder.

Binder	pEC50 hSCTR [1]	pEC50 hGLPR1 [2]
H[Aib]EGTFTSDVSTLK([AEEA-AEEA-γGlu-C20 diacid])EEAASQRFLEHLV-NH2 [SEQ ID NO: 6]	6.5 -log M	10.5 -log M
H[Aib]EGTFTSDVSELK([AEEA-AEEA-γGlu-C20 diacid])ETAAAQRFLEHLV-NH2 [SEQ ID NO: 57]	5.3 -log M	10.6 -log M
H[Aib]EGTFTSDVSRLK([AEEA-AEEA-γGlu-C20 diacid])EEAAAQRFLEHLV-NH2 [SEQ ID NO: 60]	6.6 -log M	10.5 -log M
H[Aib]EGTFTSDVSVLK([AEEA-AEEA-γGlu-C20 diacid])EEAATQRFLEHLV-NH2 [SEQ ID NO: 53]	7.2 -log M	11.3 -log M
H[Aib]EGTFTSDVSRLK([AEEA-AEEA-γGlu-C20 diacid])EFAASQRFLEHLV-NH2 [SEQ ID NO: 52]	6.4 -log M	9.9 -log M
H[Aib]EGTFTSDVSELK([AEEA-AEEA-γGlu-C20 diacid])ETAATQRFLEHLV-NH2 [SEQ ID NO: 54]	6.9 -log M	10.9 -log M
H[Aib]EGTFTSDVSFLK([AEEA-AEEA-γGlu-C20 diacid])EEAAAQRFLEHLV-NH2 [SEQ ID NO: 63]	5 -log M	10.3 -log M
H[Aib]EGTFTSDVSELK([AEEA-AEEA-γGlu-C20 diacid])EEAATQRFLEHLV-NH2 [SEQ ID NO: 55]	6.8 -log M	11 -log M
